Here are results for 3 molecules from article PMC4556315, “Structure of the JmjC domain-containing protein NO66 complexed with ribosomal protein Rpl8” (Acta Crystallographica Section D: Biological Crystallography, 2015).

Data set [1] deals with T1, C-terminal fragment of wild-type human NO66 (NO66^176–C) (human, UniProt Q9H6W3 176-641).
T1 construct: Cloned in pET-28a(+); Tetramer in the crystal; also called Nucleolar protein 66; wild-type NO66; source: E. coli Rosetta 2 (DE3), purified (Ni-NTA, tag removed by TEV protease, Superdex 200); not shown: His-SUMO, N-terminal, cleaved
As to the kind of experiment: pull-down; GST-Rpl8 fragments immobilised on GST beads from E. coli lysate and washed, incubated with purified NO66^176–C at 277 K for 1 h; buffer B (50 mM HEPES pH 7.5, 300 mM NaCl, 0.1% Triton X-100); SDS-PAGE. To be noted: both partners purified.

Data set [2] concerns the molecule itself. As to the kind of experiment: SEC; Superdex 200 10/300, 20 mM Tris-HCl pH 7.5, 200 mM NaCl; molecular weight estimated from the elution volume.
Data set [3] concerns the target T1, C-terminal fragment of wild-type human …. Description: crystal structure; NO66^176–C with Ni2+, NOG and Rpl8^204–224 peptide (protein:NOG:Ni2+:peptide 1:4:10:15); sitting drop, 295 K, 0.1 M imidazole pH 6.5, 0.5 M sodium acetate; 2.2 Å. The following applies: both partners purified.

B1: GST-Rpl8 fragment 193–224 (domain or fragment)
chain: not shown
notes: Cloned in pGEX-6P-1
As to B1, the binding result in data set [1] is on record as “binds”.

B2: NO66^176–C mutant M3 (F450A/R452A/P455A) (enzyme, human, UniProt Q9H6W3 176-641, looked up)
chain: GGEPAWDSPLRRVLAELNRIPSSRRRAARLFEWLIAPMPPDHFYRRLWEREAVLVRRQDHTYYQGLFSTADLDSMLRNEEVQFGQHLDAARYINGRRETLNPPGRALPAAAWSLYQAGCSLRLLCPQAFSTTVWQFLAVLQEQFGSMAGSNVYLTPPNSQGFAPHYDDIEAFVLQLEGRKLWRVYRPRVPTEELALTSSPNFSQDDLGEPVLQTVLEPGDLLYFPRGFIHQAECQDGVHSLHLTLSTYQRNTWGDFLEAILPLAVQAAMEENVEARAGLARDFMDYMGAQHSDSKDPRRTAFMEKVRVLVARLGHFAPVDAVADQRAKDFIHDSLPPVLTDRERALSVYGLPIRWEAGEPVNVGAQLTTETEVHMLQDGIARLVGEGGHLFLYYTVENSRVYHLEEPKCLEIYPQQADAMELLLGSYPEFVRVGDLPCDSVEDQLSLATTLYDKGLLLTKMPLALN
notes: source: E. coli Rosetta 2 (DE3), purified (Ni-NTA, tag removed by TEV protease, Superdex 200); not shown: His-SUMO, N-terminal, cleaved
What is called stoichiometry N is a count of units in the complex or per binding partner. Regarding B2, the “stoichiometry N” value in data set [2] was 2.

B3: Rpl8^204–224 peptide (human ribosomal protein L8) (peptide, UniProt P62917 204-224, looked up)
peptide: MNPVEHPFGGGNHQHIGKPST
notes: Only residues 212–222 are visible in the structure; also called Rpl8 peptide; source: synthetic peptide
Turning to B3, the binding result in data set [3] is given as “binds”.
